US20180256687A1
Where two headings read alike, the source gives them in different places.

Key:
[1] = biological target: JAK2 (Janus protein-tyrosine kinase 2) (human) (UniProt O60674)
[2] = biological target: JAK2 (Janus protein-tyrosine kinase 2) (human) (UniProt O60674); experiment: negative-control pull-down on nickel gel; lysate of resting human monocytes; mean of 3 experiments
[3] = biological target: PTP Receptor type C (PTPRC or CD45) (human) (UniProt P08575); experiment: cell-based or functional assay
Sequence of PTP Receptor type C (PTPRC or CD45) (human) (P08575 26-1306 limits assumed): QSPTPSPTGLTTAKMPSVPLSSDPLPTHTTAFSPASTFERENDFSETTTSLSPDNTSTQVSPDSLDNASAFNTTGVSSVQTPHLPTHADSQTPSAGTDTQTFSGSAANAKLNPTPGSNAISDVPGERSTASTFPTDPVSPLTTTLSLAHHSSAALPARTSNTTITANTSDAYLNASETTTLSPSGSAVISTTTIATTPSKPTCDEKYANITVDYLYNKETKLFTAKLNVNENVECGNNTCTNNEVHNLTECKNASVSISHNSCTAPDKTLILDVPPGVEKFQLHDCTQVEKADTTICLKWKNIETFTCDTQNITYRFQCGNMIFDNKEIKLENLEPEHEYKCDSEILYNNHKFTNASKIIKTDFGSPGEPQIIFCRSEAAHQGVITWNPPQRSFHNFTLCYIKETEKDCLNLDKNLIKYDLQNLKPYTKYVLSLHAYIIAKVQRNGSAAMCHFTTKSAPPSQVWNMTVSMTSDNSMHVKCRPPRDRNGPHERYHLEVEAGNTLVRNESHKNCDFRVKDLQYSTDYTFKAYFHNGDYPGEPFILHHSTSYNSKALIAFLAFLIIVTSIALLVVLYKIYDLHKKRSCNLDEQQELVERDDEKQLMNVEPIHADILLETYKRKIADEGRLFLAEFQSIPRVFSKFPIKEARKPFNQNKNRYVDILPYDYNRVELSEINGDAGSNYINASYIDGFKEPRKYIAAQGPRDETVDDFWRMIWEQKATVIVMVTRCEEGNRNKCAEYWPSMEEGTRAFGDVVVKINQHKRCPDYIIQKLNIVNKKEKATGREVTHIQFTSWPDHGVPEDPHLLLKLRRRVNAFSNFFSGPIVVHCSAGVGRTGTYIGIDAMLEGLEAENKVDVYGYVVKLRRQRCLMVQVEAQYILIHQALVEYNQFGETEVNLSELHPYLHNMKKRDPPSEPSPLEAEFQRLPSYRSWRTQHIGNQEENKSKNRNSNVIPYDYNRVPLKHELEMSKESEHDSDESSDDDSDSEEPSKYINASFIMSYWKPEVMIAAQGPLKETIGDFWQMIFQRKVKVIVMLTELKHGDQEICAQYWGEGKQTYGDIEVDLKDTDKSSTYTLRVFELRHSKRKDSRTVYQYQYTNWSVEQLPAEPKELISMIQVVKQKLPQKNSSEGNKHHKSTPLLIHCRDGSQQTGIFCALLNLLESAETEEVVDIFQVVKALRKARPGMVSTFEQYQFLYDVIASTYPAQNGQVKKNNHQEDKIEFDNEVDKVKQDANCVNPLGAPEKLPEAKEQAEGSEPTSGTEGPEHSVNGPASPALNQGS

[4] = biological target: Protein tyrosine phosphatase receptor type gamma (PTPRG) (human) (UniProt P23470); experiment: cell-based or functional assay

TAT-eGFP showed a JAK2 band (anti-JAK2 Western blot of pull-down), mean [1] of 1.5 and a JAK2 band (anti-JAK2 Western blot of pull-down), mean [2] of 4.4.
“P1-WD Trojan peptide (Penetratin fused to the PTPRG wedge domain)” gave a phosphatase activity (pNPP, absorbance at 405 nm, percent fold increase over the blank) in PMN membrane fractions, P1-WD 50 micromolar (percent fold increase over the blank) [3] of 5.15, a phosphatase activity (pNPP, absorbance at 405 nm, percent fold increase over the blank) in PMN membrane fractions, P1-WD 100 micromolar (percent fold increase over the blank) [3] of 8.54 and a phosphatase activity (pNPP, absorbance at 405 nm, percent fold increase over the blank) in PMN membrane fractions, P1-WD 200 micromolar (percent fold increase over the blank) [3] of 12.9. For the same substance, the phosphatase activity (pNPP, absorbance at 405 nm, percent fold increase over the blank) in monocyte membrane fractions, P1-WD 50 micromolar (percent fold increase over the blank) [4] was 34.6, the phosphatase activity (pNPP, absorbance at 405 nm, percent fold increase over the blank) in monocyte membrane fractions, P1-WD 100 micromolar (percent fold increase over the blank) [4] was 86.7 and the phosphatase activity (pNPP, absorbance at 405 nm, percent fold increase over the blank) in monocyte membrane fractions, P1-WD 200 micromolar (percent fold increase over the blank) [4] was 109.
For P1 (Penetratin 1) control peptide, the phosphatase activity (pNPP, absorbance at 405 nm, percent fold increase over the blank) in monocyte membrane fractions, P1 control (percent fold increase over the blank) [4] was 16.
